Test results as given in patent US20080138349A1.

Key:
FcγRIIIA = FcγRIIIA (UniProt P08637); assay: ELISA
[1] = molecular target: soluble monomeric FcγRIIIA, the extracellular region of FcγRIIIA joined to the linker-AVITAG sequence (UniProt P08637); assay: yeast display FACS; 0.1 µM biotinylated FcγRIIIA-linker-avitag chased with unlabeled monomer
FcγRIIIA 158F, soluble = FcγRIIIA 158F, soluble (UniProt P08637); assay: BIAcore, 2B6 captured by soluble CD32B
FcγRIIIA 158V, soluble = FcγRIIIA 158V, soluble (UniProt P08637); assay: BIAcore, 2B6 captured by soluble CD32B
FcγRIIIA 158V, soluble, sequence (P08637 17-208 F176V limits assumed): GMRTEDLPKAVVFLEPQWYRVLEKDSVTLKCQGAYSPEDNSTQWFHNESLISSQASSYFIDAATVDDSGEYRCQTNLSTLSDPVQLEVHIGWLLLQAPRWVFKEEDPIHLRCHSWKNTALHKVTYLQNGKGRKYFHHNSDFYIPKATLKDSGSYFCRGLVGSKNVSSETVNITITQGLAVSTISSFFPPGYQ

FcγRIIIA, sequence (P08637 17-208 limits assumed): as the sequence (P08637 17-208 F176V limits assumed) above, with V160F counted along it
soluble monomeric FcγRIIIA, the extracellular region of FcγRIIIA joined to the linker-AVITAG sequence, sequence (P08637 17-208 limits assumed): as the sequence (P08637 17-208 F176V limits assumed) above, with V160F counted along it
FcγRIIIA 158F, soluble, sequence (P08637 17-208 limits assumed): as the sequence (P08637 17-208 F176V limits assumed) above, with V160F counted along it

ELISA binding increase vs wt (FcγRIIIA) | loss of cell staining after 1 minute with unlabeled FcγRIIIA [1] | koff (FcγRIIIA 158F, soluble) | koff (FcγRIIIA 158V, soluble) | Substance
1 x | 50% | – | – | ch4-4-20 P396L (from UniProt P01857 1-330) (antibody)
– | – | 0.434 s⁻¹ | 0.192 s⁻¹ | ch-mAb 2B6 (chimeric anti-CD32B), wild-type IgG1 Fc (antibody)
